Measurements from paper PMC3438964 (The Journal of Biological Chemistry, 2012).

What was measured:
hUXS1 = molecular target: T1, hUXS1 (Homo sapiens, UniProt Q8NBZ7); assay: X-ray crystal structure, […] Å; assay type: binding; conditions: SeMet-labelled protein; 5 mM NAD+, 5 mM UDP; coenzyme site
T1 sequence (Q8NBZ7 85-402): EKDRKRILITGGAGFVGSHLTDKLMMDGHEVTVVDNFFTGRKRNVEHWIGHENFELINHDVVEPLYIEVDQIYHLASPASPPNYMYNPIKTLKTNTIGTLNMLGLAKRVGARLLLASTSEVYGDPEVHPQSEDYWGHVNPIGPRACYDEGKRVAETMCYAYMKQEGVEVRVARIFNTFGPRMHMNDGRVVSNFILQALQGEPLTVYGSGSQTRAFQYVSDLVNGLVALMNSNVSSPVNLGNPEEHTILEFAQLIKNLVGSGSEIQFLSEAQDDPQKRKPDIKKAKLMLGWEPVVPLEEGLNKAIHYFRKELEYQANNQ

purified protein = substrate: O=C(O)[C@H]1O[C@H](OP(=O)(O)OP(=O)(O)OC[C@H]2O[C@@H](n3ccc(=O)[nH]c3=O)[C@H](O)[C@@H]2O)[C@H](O)[C@@H](O)[C@@H]1O; assay: purified protein; conditions: 50 mM Tris/HCl pH 7.5, 25 °C

Q: NC(=O)c1ccc[n+]([C@@H]2O[C@H](COP(=O)(O)OP(=O)(O)OC[C@H]3O[C@@H](n4cnc5c(N)ncnc54)[C@H](O)[C@@H]3O)[C@@H](O)[C@H]2O)c1 [NAD^+] was tested. Which “X-ray crystal structure, 1.26 Å” value (hUXS1) did it give?
A: We solved the crystal structure of hUXS1 in complex with NAD^+ and UDP

B1: hUXS1 (Homo sapiens) (protein)
chain: EKDRKRILITGGAGFVGSHLTDKLMMDGHEVTVVDNFFTGRKRNVEHWIGHENFELINHDVVEPLYIEVDQIYHLASPASPPNYMYNPIKTLKTNTIGTLNMLGLAKRVGARLLLASTSEVYGDPEVHPQSEDYWGHVNPIGPRACYDEGKRVAETMCYAYMKQEGVEVRVARIFNTFGPRMHMNDGRVVSNFILQALQGEPLTVYGSGSQTRAFQYVSDLVNGLVALMNSNVSSPVNLGNPEEHTILEFAQLIKNLVGSGSEIQFLSEAQDDPQKRKPDIKKAKLMLGWEPVVPLEEGLNKAIHYFRKELEYQANNQ
Q: With B1 as the molecule, how does the kcat (purified protein; 0.5 mM NAD+) read?
A: 0.2/oxidation^e

B2: hUXS1 (Homo sapiens; E204A) (protein)
chain: EKDRKRILITGGAGFVGSHLTDKLMMDGHEVTVVDNFFTGRKRNVEHWIGHENFELINHDVVEPLYIEVDQIYHLASPASPPNYMYNPIKTLKTNTIGTLNMLGLAKRVGARLLLASTSAVYGDPEVHPQSEDYWGHVNPIGPRACYDEGKRVAETMCYAYMKQEGVEVRVARIFNTFGPRMHMNDGRVVSNFILQALQGEPLTVYGSGSQTRAFQYVSDLVNGLVALMNSNVSSPVNLGNPEEHTILEFAQLIKNLVGSGSEIQFLSEAQDDPQKRKPDIKKAKLMLGWEPVVPLEEGLNKAIHYFRKELEYQANNQ
Q: Which kcat (purified protein; 10 mM NAD+) does the source give for B2 here?
A: 1.7 × 10^−3/reduction^e
